What was measured:
CIPK23-His = target: T1, CIPK23-His (Arabidopsis, UniProt Q93VD3 1-482); experiment: pull-down; GST-ZIP2-Loop (or GST) on glutathione beads incubated with His-CIPK3/9/23/26; eluate blotted with anti-His antibody; conditions: both partners purified
T1 construct: amplified and cloned into pET30a; Printed both as CIPK3/9/23/26-His and as His-CIPK3/9/23/26, so the end of the tag is open; also called His-CIPK23; source: recombinant, cloned into pET30a
T1 sequence (looked up): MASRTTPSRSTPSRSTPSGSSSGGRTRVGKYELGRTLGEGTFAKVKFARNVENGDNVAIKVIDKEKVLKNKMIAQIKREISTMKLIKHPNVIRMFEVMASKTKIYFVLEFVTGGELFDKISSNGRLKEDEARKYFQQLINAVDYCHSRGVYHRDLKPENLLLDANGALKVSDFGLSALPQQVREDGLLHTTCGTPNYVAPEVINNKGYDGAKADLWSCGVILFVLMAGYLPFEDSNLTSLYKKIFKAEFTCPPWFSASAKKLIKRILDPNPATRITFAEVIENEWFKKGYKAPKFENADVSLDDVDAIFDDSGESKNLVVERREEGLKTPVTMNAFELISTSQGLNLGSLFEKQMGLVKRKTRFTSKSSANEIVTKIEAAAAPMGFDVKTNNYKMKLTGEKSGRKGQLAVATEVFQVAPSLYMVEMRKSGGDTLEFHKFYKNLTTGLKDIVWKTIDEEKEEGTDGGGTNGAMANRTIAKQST

CIPK26-His = target: T2, CIPK26-His (Arabidopsis, UniProt Q84VQ3 1-439); experiment: as above; conditions: both partners purified
T2 construct: amplified and cloned into pET30a; Printed both as CIPK3/9/23/26-His and as His-CIPK3/9/23/26, so the end of the tag is open; also called His-CIPK26; source: recombinant, cloned into pET30a
T2 sequence (looked up): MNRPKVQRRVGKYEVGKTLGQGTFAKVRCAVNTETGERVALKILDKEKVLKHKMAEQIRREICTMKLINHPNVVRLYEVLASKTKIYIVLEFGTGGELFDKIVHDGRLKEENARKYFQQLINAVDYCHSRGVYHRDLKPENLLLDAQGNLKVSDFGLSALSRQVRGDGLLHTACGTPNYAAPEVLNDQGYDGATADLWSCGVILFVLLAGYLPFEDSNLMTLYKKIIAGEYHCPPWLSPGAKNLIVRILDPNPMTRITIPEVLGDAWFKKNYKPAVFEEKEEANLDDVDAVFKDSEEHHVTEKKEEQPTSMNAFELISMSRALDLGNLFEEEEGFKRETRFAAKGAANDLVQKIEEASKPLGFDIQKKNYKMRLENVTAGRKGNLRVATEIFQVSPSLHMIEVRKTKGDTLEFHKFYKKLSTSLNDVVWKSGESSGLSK

- binding result (CIPK23-His): binds
- binding result (CIPK26-His): binds
B1: GST-ZIP2-Loop (domain or fragment, Arabidopsis, UniProt Q9LTH9 151-203, looked up)
chain: VAAGSNNNHVGASVGESREDDDVAVKEEGRREIKSGVDVSQALIRTSGFGDTA
notes: Zn transporter ZIP2, Arabidopsis; the largest Loop domain, residues 151-203 (451-609 bp of the CDS); Printed as GST-ZIP2-Loop and as ZIP2-Loop-GST; pGEX4T-1 normally places GST at the N-terminus (surmised); also called ZIP2-Loop-GST; source: prokaryotic fusion protein (pGEX4T-1), purified

From article PMC12756210, “Calcium signaling-mediated phosphorylation controls zinc allocation in Arabidopsis” (Stress Biology, 2025)
